Results on six molecules are retold here after article doi:10.1101/2023.07.20.549907, “Mechanism of outer kinetochore assembly on microtubules and its regulation by mitotic error correction” (bioRxiv, 2023).

The chains are these.
B5: Spc34 subunit of the Dam1 complex (natural protein, S. cerevisiae, UniProt P36131 1-295, looked up)
chain: MGESLDRCIDDINRAVDSMSTLYFKPPGIFHNAILQGASNKASIRKDITRLIKDCNHDEAYLLFKVNPEKQSVSRRDGKEGVFDYVIKRDTDMKRNRRLGRPGEKPIIHVPKEVYLNKDRLDLNNKRRRTATTSGGGLNGFIFDTDLIGSSVISNSSSGTFKALSAVFKDDPQIQRLLYALENGSVLMEEESNNQRRKTIFVEDFPTDLILKVMAEVTDLWPLTEFKQDYDQLYHNYEQLSSKLRFIKKEVLLQDDRLKTMSQYHPSSSHDVAKIIRKEKDEIRRLEMEIANLQE
notes: Spc34 subunit of the S. cerevisiae Dam1 complex; Stood in the structure as part of the whole Dam1 complex; source: as subunit of m2
B6: Dam1 subunit of the Dam1 complex (natural protein, S. cerevisiae, UniProt P53267 1-343, looked up)
chain: MSEDKAKLGTTRSATEYRLSIGSAPTSRRSSMGESSSLMKFADQEGLTSSVGEYNENTIQQLLLPKIRELSDSIITLDSNFTRLNFIHESLADLNESLGSLLYGIMSNSWCVEFSQAPHDIQDDLIAIKQLKSLEDEKNNLVMELSNMERGIKRKKDEQGENDLAKASQNKQFNQPLFPSSQVRKYRSYDNRDKRKPSKIGNNLQVENEEDYEDDTSSEASFVLNPTNIGMSKSSQGHVTKTTRLNNNTNSKLRRKSILHTIRNSIASGADLPIENDNVVNLGDLHPNNRISLGSGAARVVNGPVTKNRNSMFSGRAERKPTESRHSVAKKTEKKINTRPPFR
notes: Dam1 subunit of the S. cerevisiae Dam1 complex; Stood in the structure as part of the whole Dam1 complex; also called Dam1^Staple (residues 1-26); Dam1^C-ter; source: as subunit of m2

Holding throughout (experiment): cryo-EM structure; complexes assembled on cryo-EM grids by step-wise addition of taxol-stabilized microtubule filaments, Ndc80c and Dam1c; sub-boxing, signal subtraction and symmetry expansion for the separate reconstructions
Holding throughout (conditions): both partners purified

The target in experiment [1] is B6.
For experiment [2], the target named is B5.
In experiment [3] the target is T1, Ndc80 subunit of the Ndc80 complex (S. cerevisiae, UniProt P40460 1-691).
T1 construct: Ndc80 subunit of the budding yeast Ndc80 complex; Stood in the structure as part of the Ndc80 complex; also called Ndc80^CH; Ndc80^CC; source: as subunit of m1

Experiment [4] deals with T2, Ndc80 complex (Ndc80, Nuf2, Spc24, Spc25), budding yeast (S. cerevisiae, UniProt P40460 1-691; P33895 1-451; Q04477 1-213; P40014 1-221).
T2 construct: Ndc80 subunit of the budding yeast Ndc80 complex; Nuf2 subunit of the budding yeast Ndc80 complex; Spc24 subunit of the budding yeast Ndc80 complex; Spc25 subunit of the budding yeast Ndc80 complex; Complex used for cryo-EM; Spc24-Spc25 gave no cryo-EM density; copies: + + +

Experiment [5] concerns the target T3, Nuf2 subunit of the Ndc80 complex (S. cerevisiae, UniProt P33895 1-451).
T3 construct: Nuf2 subunit of the budding yeast Ndc80 complex; Stood in the structure as part of the Ndc80 complex; also called Nuf2^CH; Nuf2^CC; source: as subunit of m1

T1 sequence (P40460 whole entry, one chain of several): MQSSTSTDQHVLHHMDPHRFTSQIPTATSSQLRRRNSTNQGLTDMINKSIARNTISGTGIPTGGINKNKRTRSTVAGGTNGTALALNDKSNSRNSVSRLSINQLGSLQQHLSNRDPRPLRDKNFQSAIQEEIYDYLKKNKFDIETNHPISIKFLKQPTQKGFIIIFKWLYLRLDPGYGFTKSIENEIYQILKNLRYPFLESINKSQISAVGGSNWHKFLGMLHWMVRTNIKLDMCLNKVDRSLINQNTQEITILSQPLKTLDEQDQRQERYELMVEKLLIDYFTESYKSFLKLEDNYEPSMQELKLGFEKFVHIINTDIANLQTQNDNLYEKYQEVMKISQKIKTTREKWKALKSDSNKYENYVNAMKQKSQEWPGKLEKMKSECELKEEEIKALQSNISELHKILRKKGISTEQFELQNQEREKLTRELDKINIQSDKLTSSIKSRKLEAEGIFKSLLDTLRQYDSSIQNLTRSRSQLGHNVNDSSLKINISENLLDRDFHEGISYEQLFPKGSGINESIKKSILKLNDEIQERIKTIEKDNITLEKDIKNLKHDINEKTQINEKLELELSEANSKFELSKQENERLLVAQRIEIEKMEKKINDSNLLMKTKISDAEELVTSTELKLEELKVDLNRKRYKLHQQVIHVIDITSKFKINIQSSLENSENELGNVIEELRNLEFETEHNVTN
T2 sequence (P40460 whole entry, chain 1 of 4): as the sequence (P40460 whole entry, one chain of several) above
T2 sequence (P33895 whole entry, chain 2 of 4): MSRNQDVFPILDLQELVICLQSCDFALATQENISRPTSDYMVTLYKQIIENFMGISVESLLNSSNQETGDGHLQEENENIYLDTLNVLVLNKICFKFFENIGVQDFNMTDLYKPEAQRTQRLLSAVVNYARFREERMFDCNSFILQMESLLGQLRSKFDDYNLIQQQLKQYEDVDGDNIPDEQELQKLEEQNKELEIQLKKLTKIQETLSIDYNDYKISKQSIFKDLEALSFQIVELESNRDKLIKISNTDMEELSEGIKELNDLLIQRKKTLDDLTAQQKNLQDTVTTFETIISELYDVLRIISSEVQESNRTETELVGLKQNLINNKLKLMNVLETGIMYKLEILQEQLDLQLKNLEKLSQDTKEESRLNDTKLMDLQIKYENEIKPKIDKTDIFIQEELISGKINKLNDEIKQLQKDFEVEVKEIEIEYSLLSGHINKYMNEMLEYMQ
T2 sequence (Q04477 whole entry, chain 3 of 4): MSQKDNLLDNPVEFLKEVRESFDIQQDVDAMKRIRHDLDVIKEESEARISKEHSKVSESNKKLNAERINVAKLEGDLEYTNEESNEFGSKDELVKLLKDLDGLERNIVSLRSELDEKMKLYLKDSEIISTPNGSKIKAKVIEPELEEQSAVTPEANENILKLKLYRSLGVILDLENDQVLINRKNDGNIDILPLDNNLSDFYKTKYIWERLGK
T2 sequence (P40014 whole entry, chain 4 of 4): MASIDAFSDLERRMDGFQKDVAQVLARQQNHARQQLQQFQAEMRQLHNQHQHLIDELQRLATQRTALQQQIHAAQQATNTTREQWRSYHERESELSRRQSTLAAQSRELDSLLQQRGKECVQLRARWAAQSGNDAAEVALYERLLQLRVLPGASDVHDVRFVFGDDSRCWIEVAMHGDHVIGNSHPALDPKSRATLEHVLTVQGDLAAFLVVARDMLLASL
T3 sequence (P33895 whole entry, one chain of several): as the sequence (P33895 whole entry, chain 2 of 4) above

B1: Ask1 subunit of the Dam1 complex (natural protein, S. cerevisiae, UniProt P35734 1-292, looked up)
chain: MDSASKEETLEKLDQEITVNLQKIDSNLSFCFHKITQDIIPHVATYSEICERIMDSTEWLGTMFQETGLVNLQANAAAPVGNAPVKSLVSNNVGIFPTSAEEASRQSQTDNGPNEADSAVHVNRDVHSMFNNDSIDDFHTANITSTGQILKLPDSSDEDTGSEAVPSREQTDLTGEGHGGADDEQDESTIQRQSRKRKISLLLQQQYGSSSSMVPSPIVPNKMRKQLAHEEHINNDGDNDDENSNNIESSPLKQGHHHPKGQADDNNEGPDEEESTKEVPKPGTIIHFSTNR
notes: Ask1 subunit of the S. cerevisiae Dam1 complex; Stood in the structure as part of the whole Dam1 complex; also called Ask1^B; source: as subunit of m2
On to B1, for which the binding result in experiment [1] was “binds”.

B2: Dad1 subunit of the Dam1 complex (natural protein, S. cerevisiae, UniProt Q12248 1-94, looked up)
chain: MMASTSNDEEKLISTTDKYFIEQRNIVLQEINETMNSILNGLNGLNISLESSIAVGREFQSVSDLWKTLYDGLESLSDEAPIDEQPTLSQSKTK
notes: Dad1 subunit of the S. cerevisiae Dam1 complex; Stood in the structure as part of the whole Dam1 complex; also called Dad1^A; source: as subunit of m2
As for B2, the binding result in experiment [1] is given as “binds”.

B3: Spc19 subunit of the Dam1 complex (natural protein, S. cerevisiae, UniProt Q03954 1-165, looked up)
chain: MTDALEQSVLALEGTVSVLKDSVESLKCANEPSTNLASTMLQTKRVFRLVPEYDVERSKLDLIEEVEPLVRTLGDKLRKSMGRMQRELDTLQQTYELNDLRLKKNISMDDDDALNSPDMGQEYEGRDADDVVMMASSTNEELEELKKLKEKKKQLENKLEILKQK
notes: Spc19 subunit of the S. cerevisiae Dam1 complex; Stood in the structure as part of the whole Dam1 complex; source: as subunit of m2
On to B3, for which the binding result in experiment [2] and in experiment [3] was “binds” throughout.

B4: Dad4 subunit of the Dam1 complex (natural protein, S. cerevisiae, UniProt P69851 1-72, looked up)
chain: MENPHEQVQANILSRIIGNVKRLNESVAILNQELVTINNRNKNLEIMGAICDNYHSSVQFNLEATNNKKPPL
notes: Dad4 subunit of the S. cerevisiae Dam1 complex; Stood in the structure as part of the whole Dam1 complex; also called Dad4^B; source: as subunit of m2
As to B4, the binding result in experiment [1] is given as “binds”.

Turning to B5, in experiment [4], the binding result is “binds”.

B6: the binding result in experiment [3] and in experiment [5] was “binds” throughout.
